Results reported in publication PMC5611513 (2017).

B1: TplEi (natural protein)
chain: CTSFSSSRSSSMDKTGWITHCFGRFLIDLPPDAVINAGYYLWGDRIEYLDDKPTELAARVDRLEQEWRTQRHKSKGNMFLRKIDFGNESVGLLSWSSEVASKTYLLDTYVTSKPTWHVYRWKGKVSVDREQHAVEISRALARNLRSRAPKEIPSEPGFCIDHAYIAGDSFQVERFGVGVTFPEHPGARFEFRSSTGAELNSLLERVDGFVQNMLSTFAGMETLRKGKHPVGSLPGEEYLVAGSDKGQRGYTFMWEVQGKEESLTEPNLTAGLAVLERSNENGKPPPPAFKSDKEALELWDTIVDSIRVRPTSSSPRGGNAGPSPAPKPATPGGQTLGDHYVYEEFLSSLKPKDSWLDDL

Tests used:
Assay in all cases: ITC
[1] = biological target: B1
[2] = biological target: I88A
[3] = biological target: L91A
[4] = biological target: G98A

Ac-DDLFASIGALWTWAWRGPKARQELLKAEQVEVDD-NH2 [A peptides (“L” peptide, TplE 82-108 plus EQVEVDD)]
Ka [1]: 7.98e+06 M⁻¹

B1
Kd [2]: 4.8 µM | Kd [3]: 3.7 µM | Kd [4]: 1.31 µM

Ac-DDLFASIGALWTWAWRGPKARQELLKAEQ-NH2 [B peptides (“L” peptide, TplE 82-108 plus EQ)]
Ka [1]: 2.09e+06 M⁻¹
